Laboratory results: article PMC12416549 (2024)
Residue numbers refer to the chain shown, from its start. Names may count otherwise.

T1: TNFR1 (Homo sapiens, UniProt P19438)
T1 chain: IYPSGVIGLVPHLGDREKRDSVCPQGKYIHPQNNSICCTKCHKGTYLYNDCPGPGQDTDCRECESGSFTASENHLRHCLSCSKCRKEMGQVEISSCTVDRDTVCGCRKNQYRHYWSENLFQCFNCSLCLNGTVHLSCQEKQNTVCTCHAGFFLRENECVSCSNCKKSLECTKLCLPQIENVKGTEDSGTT

B1: A88Y (designed binder)
chain: MTLQELLREEALRRAEAEAFRYALELLAEKFPEQKEYLLDLAEEIESQIRSLSGVDVEDVRKFLDKEWAWVKELLAEHPAELAEVEAYRAARLAELRAEVEAKVAA
B2: R97G (designed binder)
chain: B1 chain with Y88A, R97G
B3: E18K (designed binder)
chain: B1 chain with E18K, Y88A
B4: D56V (designed binder)
chain: B1 chain with D56V, Y88A
B5: L82F (designed binder)
chain: B1 chain with L82F, Y88A
B6: L39E (designed binder)
chain: B1 chain with L39E, Y88A
B7: E33D (designed binder)
chain: B1 chain with E33D, Y88A
B8: R92E (designed binder)
chain: B1 chain with Y88A, R92E
B9: L41N (designed binder)
chain: B1 chain with L41N, Y88A
B10: A105Q (designed binder)
chain: B1 chain with Y88A, A105Q
B11: E86F (designed binder)
chain: B1 chain with E86F, Y88A
B12: V55Q (designed binder)
chain: B1 chain with V55Q, Y88A
B13: W68C (designed binder)
chain: B1 chain with W68C, Y88A
B14: W70L (designed binder)
chain: B1 chain with W70L, Y88A
B15: A17G (designed binder)
chain: B1 chain with A17G, Y88A
B16: L26W (designed binder)
chain: B1 chain with L26W, Y88A
B17: A88W (designed binder)
chain: B1 chain with Y88W
B18: E81H (designed binder)
chain: B1 chain with E81H, Y88A
B19: V71E (designed binder)
chain: B1 chain with V71E, Y88A
B20: S53K (designed binder)
chain: B1 chain with S53K, Y88A
B21: A98Y (designed binder)
chain: B1 chain with Y88A, A98Y
B22: V71N (designed binder)
chain: B1 chain with V71N, Y88A
B23: Q48W (designed binder)
chain: B1 chain with Q48W, Y88A
B24: V71G (designed binder)
chain: B1 chain with V71G, Y88A
B25: K35T (designed binder)
chain: B1 chain with K35T, Y88A
B26: L12N (designed binder)
chain: B1 chain with L12N, Y88A
B27: R21E (designed binder)
chain: B1 chain with R21E, Y88A
B28: A91Q (designed binder)
chain: B1 chain with Y88A, A91Q
B29: L41W (designed binder)
chain: B1 chain with L41W, Y88A
B30: E99F (designed binder)
chain: B1 chain with Y88A, E99F
B31: E77H (designed binder)
chain: B1 chain with E77H, Y88A
B32: L41H (designed binder)
chain: B1 chain with L41H, Y88A
B33: E29A (designed binder)
chain: B1 chain with E29A, Y88A
B34: E95Q (designed binder)
chain: B1 chain with Y88A, E95Q
B35: W70E (designed binder)
chain: B1 chain with W70E, Y88A
B36: V57E (designed binder)
chain: B1 chain with V57E, Y88A
B37: F20E (designed binder)
chain: B1 chain with F20E, Y88A
B38: I45T (designed binder)
chain: B1 chain with I45T, Y88A
B39: E77Y (designed binder)
chain: B1 chain with E77Y, Y88A
B40: E86H (designed binder)
chain: B1 chain with E86H, Y88A
B41: E16M (designed binder)
chain: B1 chain with E16M, Y88A
B42: Q48L (designed binder)
chain: B1 chain with Q48L, Y88A
B43: K103H (designed binder)
chain: B1 chain with Y88A, K103H

Biological target: T1, TNFR1
Assay: yeast display SC50

Binder | apparent Kd (screen) [nM]
B1 | 1.05
B2 | 0.539
B3 | 0.49
B4 | 2.73
B5 | 0.539
B6 | 2.48
B7 | 0.49
B8 | 1.05
B9 | 2.05
B10 | 0.539
B11 | 2.25
B12 | 1.05
B13 | 2.48
B14 | 22.2
B15 | 0.539
B16 | 0.405
B17 | 0.49
B18 | 0.446
B19 | 0.869
B20 | 2.73
B21 | 0.539
B22 | 0.869

Binder | apparent Kd (screen) [nM]
B23 | 29.5
B24 | 22.2
B25 | 0.539
B26 | 0.446
B27 | 0.49
B28 | 0.49
B29 | 2.25
B30 | 0.593
B31 | 0.653
B32 | 13.8
B33 | 0.718
B34 | 0.446
B35 | 26.9
B36 | 1.86
B37 | 5.31
B38 | 10.4
B39 | 0.49
B40 | 0.79
B41 | 1.05
B42 | 2.73
B43 | 0.49
